Reference: the Immune Epitope Database (IEDB)

Key:
HLA-B*15:01 = experiment: IEDB peptide-MHC binding, purified MHC/competitive/fluorescence; filed as Kd, often an IC50 or EC50 that approximates it; ≥ and ≤ were set here for values at or beyond the usual limits of such assays
HLA-A*23:01 = experiment: as above
HLA-B*46:01 = experiment: as above
HLA-B*18:01 = experiment: as above
HLA-A*03:01 [1] = experiment: as above
HLA-A*68:02 = experiment: as above
HLA-B*39:01 = experiment: as above
HLA-B*51:01 = experiment: as above
HLA-A*02:19 = experiment: as above
HLA-A*02:16 = experiment: as above
HLA-A*26:01 = experiment: as above
HLA-B*57:01 = experiment: as above
HLA-B*27:03 = experiment: as above
HLA-A*24:03 = experiment: as above
HLA-A*02:12 = experiment: as above
HLA-A*02:01 = experiment: as above
HLA-A*02:03 = experiment: as above
HLA-A*31:01 = experiment: as above
HLA-B*58:01 = experiment: as above
HLA-A*01:01 = experiment: as above; conditions: source organism: Shigella boydii CDC 3083-94
HLA-A*29:02 = experiment: as above; conditions: source organism: Campylobacter jejuni subsp. jejuni NCTC 11168 = ATCC 700819
HLA-A*02:11 = experiment: as above; conditions: source organism: Campylobacter jejuni subsp. jejuni NCTC 11168 = ATCC 700819
HLA-A*69:01 = experiment: as above; conditions: source organism: Campylobacter jejuni subsp. jejuni NCTC 11168 = ATCC 700819
HLA-A*03:01 [2] = experiment: IEDB peptide-MHC binding, purified MHC/direct/fluorescence; filed as Kd, often an IC50 or EC50 that approximates it; ≥ and ≤ were set here for values at or beyond the usual limits of such assays
HLA-A*11:01 = experiment: as above
HLA-B*83:01 = experiment: IEDB peptide-MHC binding, purified MHC/competitive/fluorescence; filed as Kd, often an IC50 or EC50 that approximates it; ≥ and ≤ were set here for values at or beyond the usual limits of such assays; conditions: source organism: Rickettsia typhi str. Wilmington
HLA-B*45:06 = experiment: as above; conditions: source organism: Rickettsia typhi str. Wilmington
HLA-B*15:42 = experiment: as above; conditions: source organism: Rickettsia typhi str. Wilmington
[3] = source organism: Burkholderia pseudomallei K96243
[4] = source organism: Escherichia coli 101-1
[5] = source organism: Shigella boydii CDC 3083-94
[6] = source organism: Campylobacter jejuni subsp. jejuni NCTC 11168 = ATCC 700819
[7] = source organism: Rickettsia typhi
[8] = source organism: Burkholderia mallei

With DELWRGLLA the Kd (HLA-B*15:01; [3]) was ≥ 20 µM, the Kd (HLA-A*23:01; [3]) was ≥ 20 µM and the Kd (HLA-B*46:01; [3]) was ≥ 20 µM. The Kd (HLA-B*18:01; [3]) was 0.0813 µM, the Kd (HLA-A*03:01 [1]; [3]) was ≥ 20 µM and the Kd (HLA-A*68:02; [3]) was ≥ 20 µM. The Kd (HLA-B*39:01; [3]) was ≥ 20 µM, the Kd (HLA-B*51:01; [3]) was ≥ 20 µM and the Kd (HLA-A*02:19; [3]) was ≥ 20 µM. The Kd (HLA-A*02:16; [3]) was ≥ 20 µM, the Kd (HLA-A*26:01; [3]) was ≥ 20 µM and the Kd (HLA-B*57:01; [3]) was ≥ 20 µM. For the same sequence, the Kd (HLA-B*27:03; [3]) was ≥ 20 µM, the Kd (HLA-A*24:03; [3]) was ≥ 20 µM and the Kd (HLA-A*02:12; [3]) was ≥ 20 µM. The Kd (HLA-A*02:01; [3]) was ≥ 20 µM and the Kd (HLA-A*02:03; [3]) was ≥ 20 µM.
With GTKAWVMNR the Kd (HLA-A*03:01 [1]; [4]) was 4.5 µM and the Kd (HLA-A*31:01; [4]) was 0.0033 µM.
HSETVIHRY was tested, and the Kd (HLA-B*15:01; [5]) was 3 µM, the Kd (HLA-B*58:01; [5]) was ≥ 20 µM and the Kd (HLA-A*01:01) was 0.0144 µM.
KGMKIQHFK was tested, and the Kd (HLA-B*15:01; [6]) was ≥ 20 µM, the Kd (HLA-A*29:02) was ≥ 20 µM and the Kd (HLA-A*23:01; [6]) was ≥ 20 µM. The Kd (HLA-B*46:01; [6]) was ≥ 20 µM, the Kd (HLA-B*18:01; [6]) was ≥ 20 µM and the Kd (HLA-A*03:01 [1]; [6]) was 0.0679 µM. The Kd (HLA-A*68:02; [6]) was ≥ 20 µM, the Kd (HLA-B*39:01; [6]) was ≥ 20 µM and the Kd (HLA-B*51:01; [6]) was ≥ 20 µM. The Kd (HLA-A*02:19; [6]) was ≥ 20 µM, the Kd (HLA-A*02:16; [6]) was ≥ 20 µM and the Kd (HLA-A*26:01; [6]) was ≥ 20 µM. The Kd (HLA-B*57:01; [6]) was ≥ 20 µM, the Kd (HLA-B*27:03; [6]) was ≥ 20 µM and the Kd (HLA-A*02:11) was ≥ 20 µM. The Kd (HLA-A*69:01) was ≥ 20 µM, the Kd (HLA-A*24:03; [6]) was ≥ 20 µM and the Kd (HLA-A*02:12; [6]) was ≥ 20 µM. For the same sequence, the Kd (HLA-A*02:01; [6]) was ≥ 20 µM and the Kd (HLA-A*02:03; [6]) was ≥ 20 µM.
With LKASGRYQW the Kd (HLA-B*58:01; source organism: Escherichia coli O139:H28 str. E24377A) was 0.879 µM.
In the case of LTIPTIMGR, the Kd (HLA-A*03:01 [2]; [7]) is reported as 0.93 µM, the Kd (HLA-A*11:01; [7]) is reported as 0.003 µM and the Kd (HLA-B*83:01) is reported as ≥ 5 µM. The Kd (HLA-B*45:06) was ≥ 5 µM, the Kd (HLA-A*31:01; source organism: Rickettsia typhi str. Wilmington) was 0.00255 µM and the Kd (HLA-B*15:42) was ≥ 5 µM.
Sequence LTQRRTTPR has a Kd (HLA-A*03:01 [2]; [8]) of 1.86 µM, a Kd (HLA-A*11:01; [8]) of 0.0526 µM and a Kd (HLA-A*31:01; source organism: Burkholderia mallei FMH) of 0.0131 µM.
